Test results as given in PMC7060403 (Journal of molecular biology, 2019).

Molecular target: T1, RavP-C (C-terminal region of the rabies virus phosphoprotein, residues 140-297) (rabies virus, UniProt P22363 140-297)
T1 sequence: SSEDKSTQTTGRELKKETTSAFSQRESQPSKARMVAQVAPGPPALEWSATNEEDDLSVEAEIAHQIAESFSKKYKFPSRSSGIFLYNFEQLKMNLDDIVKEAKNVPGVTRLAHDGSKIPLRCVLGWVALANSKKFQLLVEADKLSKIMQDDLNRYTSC
Test: ITC

B1: LC8 from Drosophila melanogaster (natural protein, UniProt Q24117 1-89, looked up)
chain: MSDRKAVIKNADMSEEMQQDAVDCATQALEKYNIEKDIAAYIKKEFDKKYNPTWHCIVGRNFGSYVTHETRHFIYFYLGQVAILLFKSG
Binder B1 has a Kd of 4.19 µM.
